Source: the supplement of paper PMC12764529
± gives the half width of the 95% confidence interval.

Assays:
[1] = folding stability dG unfold from trypsin proteolysis; higher = more stable
Procedure, shortened: (§1)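 Bayesian fitting of sequencing counts gave K50 for each design. Unfolding free energy followed by setting this against a sequence-predicted unfolded-state K50 and a shared folded-state K50, either per protease or with trypsin and chymotrypsin combined. The designs, under 80 residues and lacking cysteine, were digested in a PA-tagged cDNA display format at 11 threefold-diluted protease concentrations and without protease, and only those with AlphaFold2 dimer inter-PAE above 15 were kept.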

[2] = folding stability dG unfold from chymotrypsin proteolysis; higher = more stable
Procedure, shortened: as §1

[3] = folding stability dG unfold (combined trypsin and chymotrypsin); higher = more stable
Procedure, shortened: as §1

Sequence | folding stability dG unfold [1] [kcal/mol] | folding stability dG unfold [2] [kcal/mol] | folding stability dG unfold [3] [kcal/mol]
SAGGSAGGGTIEIEDPNGVKVEIEIDPDDGYTIIKAFMPDGWVITILMPPEGKIEIETFPLEPPSAGGSAGG [r6_415_TrROS] | 1.92 ± 0.26 | 2.96 ± 0.23 | 2.43 ± 0.35
SAGGSAGGGVYLNGLLPGGVALLSAPTASGEYTLILISPDNRALIFSYPADTGTPRVAEIDLPTSAGGSAGG [r6_159_TrMRF] | 0.577 ± 0.062 | 1.87 ± 0.065 | 1.49 ± 0.11
SAGGSAGGITPDDYFLIKLNAVVKLPNGDIVELKKDEVILAKADDVEILHADDIEIYPIGRDKLSAGGSAGG [r6_810_TrMRF] | 0.23 ± 0.048 | -0.503 ± 0.29 | -0.0393 ± 0.22
SAGGSAGGIWFMIKSAEDLKNLLNKWGWTIKDISVERWENDDGYVWIPIKIKPVPPPPPPEEDKSAGGSAGG [r6_981_TrROS] | 2.36 ± 0.086 | 3.77 ± 0.061 | 3.06 ± 0.44
SAGGSAGGIWIPVPDGYWIKIEMPDNNGEPKATHEMDSPADVEEALEEMPPDNLTKVEIWPLPDSAGGSAGG [r6_705_TrROS] | 0.875 ± 0.16 | 0.902 ± 0.21 | 0.532 ± 0.71
SAGGSAGGKEIKVIELPEEKVTIEVTITLEDGTVIKVTAVIDAETGEIVEITSVEIVPLPAEEKSAGGSAGG [r6_927_TrROS_Hall] | -0.122 ± 0.11 | 1.88 ± 0.2 | 1.36 ± 0.21
SAGGSAGGKEPFTVDKVEATVPFPGADGTEGVVLVTLPNGEKRLIPASELPLENLQPDGTVSSASAGGSAGG [r6_609_TrMRF] | 0.161 ± 0.034 | 0.328 ± 0.037 | 0.302 ± 0.11
SAGGSAGGKIEIVFETPSGDIVPITYDPKTKKVDVTVRNKDGKPSEELKEKAIELAKKLIEELESAGGSAGG [r6_224_TrMRF] | 0.29 ± 0.25 | 1.05 ± 0.15 | 0.519 ± 0.26
SAGGSAGGKITLLDEEEIEEVAKELGIDPENIRVIKVENEIIAILSKAKPLTPEKLKEIVEKLKSAGGSAGG [r6_243_JUSTAS] | 1.06 ± 0.021 | 0.686 ± 0.029 | 0.934 ± 0.055
SAGGSAGGKKKIIKIKNKDGEYLIKVKTKDGKTVEFKKFKSLEEALKALPKEKIEKIEIIPLKKSAGGSAGG [r6_307_TrROS_Hall] | 1.64 ± 0.085 | 2.4 ± 0.1 | 2.06 ± 0.42
SAGGSAGGKKKTIVIKADSLEELKAALEALPEKVEVRLPNGETITLEVDGKKVEIKVISPEELKSAGGSAGG [r6_641_TrROS_Hall] | 0.448 ± 0.039 | 0.959 ± 0.048 | 0.753 ± 0.14
SAGGSAGGKKLTAEELAKKLKELIPDVEKVEIVSVDKKTKKVTIKVKTKKEKEKIKEALKELLKSAGGSAGG [r6_635_TrROS_Hall] | 0.56 ± 0.064 | 0.816 ± 0.048 | 0.65 ± 0.1
SAGGSAGGKKLYIVKIKIKNENGEEIEITLVFETEEQLKEALESLPIKNVKIEDVEIIPLEELKSAGGSAGG [r6_296_TrROS_Hall] | 1.88 ± 0.051 | 3.39 ± 0.098 | 3 ± 0.063
SAGGSAGGKKYEVVSTIKDPATGETITVIKKDGKLIITITNKNGETKTIEITVKPGETITITAPSAGGSAGG [r6_379_TrROS_Hall] | 1.93 ± 0.077 | 1.57 ± 0.026 | 1.74 ± 0.057
SAGGSAGGKLKIEITLEKVKNPETKEYYYRLRVTIYNENGKKIKEIEVVAKSKEEALEALKKLLSAGGSAGG [r6_974_TrROS_Hall] | 4.98 ± 0.22 | 5.24 ± 0.068 | 5.2 ± 0.13
SAGGSAGGKLKVRIEIYRKDPKTNKWTKVKTIEIEIEAESEEELLAAAKALAPPGYEVKVELLPSAGGSAGG [r6_623_TrROS_Hall] | 4.26 ± 0.24 | 5.23 ± 0.21 | 5.15 ± 0.34
SAGGSAGGKLVIGVFIPGLTPEQAEALVKLLEALGYPKENVTVVVFNVPALPPPGLEELLTKNGSAGGSAGG [r6_243_TrMRF] | 1.77 ± 0.071 | 2.75 ± 0.042 | 2.45 ± 0.16
SAGGSAGGKLVVLLVRRPDGSLALRVTDAENPAEALEAARRNGMEALPLEVDDLEEFLEAIGLGSAGGSAGG [r6_495_TrMRF] | 0.875 ± 0.076 | 2.65 ± 0.09 | 2.17 ± 0.13
SAGGSAGGKNNETRRDPNNGNTYTRTGGKWEMEPVPPPIEIVPWPIWDPNGQDLELMWRVSINLSAGGSAGG [r6_313_TrROS] | 1.06 ± 0.2 | 0.497 ± 0.49 | 0.838 ± 0.33
SAGGSAGGKPPKFKVEVFIFPESNSVLVKIELPNSTLPFFIDKNGKIKGIKIIGDKVFNVSEGLSAGGSAGG [r6_241_TrMRF] | 1.42 ± 0.12 | 2.17 ± 0.097 | 1.96 ± 0.17
SAGGSAGGKPPKPPKKVTITVTITFTLEDGKTVTVTAKITFLPDGTIKIEITYPDGSKLTLTFPSAGGSAGG [r6_109_TrROS_Hall] | 3.75 ± 0.35 | 4.81 ± 0.18 | 4.59 ± 0.23
